# The supplement of paper PMC12783771
# ± gives the standard deviation of the averaged measurements.
# B1: library; numbered along this chain (parent)
# chain: MNIQIGELAKRTACPVVTIRFYEQEGLLPPPGRSRGNFRLYGEEHVERLQFIRHCRSLDMPLSDVRTLLSYRKRPDQDCGEVNMLLDEHIRQVESRIGALLELKHHLVELREACSGARPAQSCGILQGLSDCVCDTRGTTAHPSD
# Assays:
# [1] = variants of: B1; test: sfGFP reporter fluorescence (15 h) (µM FITC); higher = higher leak; settings: library round: Round 1; ligand: none
# Experimental: (§1)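 Cell-free biosensing: 1 µL Echo-assembled CFE reactions with linear PbrR variant templates (5 nM) and pPbrR-sfGFP reporter, with 1 µM Pb, 30 µM Zn or no ligand; endpoint sfGFP fluorescence after 15 h at 30 °C calibrated as µM FITC. Round 1 ML-predicted PbrR mutants; 3 biological replicates.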
# [2] = variants of: B1; test: sfGFP reporter fluorescence (15 h) (µM FITC); higher = stronger transcriptional activation; settings: library round: Round 1
# Experimental: as §1
Variant,sfGFP reporter fluorescence [1],sfGFP reporter fluorescence ([2]; ligand: 1 µM Pb),sfGFP reporter fluorescence ([2]; ligand: 30 µM Zn)
D64K C114I,0.05986 ± 0.00056,0.0594 ± 0.0011,0.0599 ± 0.0022
D64K C114F,0.0621 ± 0.0032,0.0613 ± 0.0011,0.0596 ± 0.0016
M60L D64K D135S,0.29 ± 0.02,0.662 ± 0.097,1.93 ± 0.17
P61N D64T D131C,0.139 ± 0.011,0.315 ± 0.076,1.1 ± 0.12
D64L K104V L107R,0.0627 ± 0.0017,0.0614 ± 0.0042,0.0593 ± 0.0044
G36K P61N,0.0721 ± 0.0043,0.112 ± 0.0096,0.588 ± 0.075
P30V K104V,0.0683 ± 0.002,0.117 ± 0.0083,0.641 ± 0.092
V46F K104V,0.0666 ± 0.0012,0.103 ± 0.0038,0.475 ± 0.047
N83S E94D K104A,0.05986 ± 0.00042,0.0734 ± 0.0052,0.422 ± 0.014
R33C K104V,0.06255 ± 0.00056,0.0618 ± 0.0011,0.0646 ± 0.0015
P61N R111L,0.0644 ± 0.0014,0.0861 ± 0.0066,0.265 ± 0.025
D64K N83T D131S,0.0698 ± 0.0016,0.29 ± 0.022,1.03 ± 0.022
D64T D135R,0.137 ± 0.008,0.29 ± 0.041,1.76 ± 0.28
D64T D135A,0.13 ± 0.0033,0.23 ± 0.0095,1.63 ± 0.1
L58F K104V,0.0645 ± 0.00097,0.0808 ± 0.00092,0.182 ± 0.024
P61N P143L,0.0754 ± 0.0012,0.151 ± 0.0086,0.804 ± 0.13
M60L D64K K104V L107C G128I,1.95 ± 0.25,2.02 ± 0.3,2.61 ± 0.17
D64T E112I D135A,0.08637 ± 0.00056,0.197 ± 0.029,1.56 ± 0.079
E43Y P61N,0.0713 ± 0.0038,0.139 ± 0.0038,0.822 ± 0.12
C55V K104V,0.0621 ± 0.00092,0.0644 ± 0.0017,0.107 ± 0.0044
P30A K104V,0.0666 ± 0.0032,0.115 ± 0.011,0.583 ± 0.05
C55L K104V,0.0651 ± 0.0015,0.0729 ± 0.004,0.121 ± 0.0031

Variant,sfGFP reporter fluorescence [1],sfGFP reporter fluorescence ([2]; ligand: 1 µM Pb),sfGFP reporter fluorescence ([2]; ligand: 30 µM Zn)
P61N D64A,0.0855 ± 0.0012,0.183 ± 0.013,1.07 ± 0.098
P61N D64T,0.345 ± 0.02,1.06 ± 0.11,3.56 ± 0.13
D64G N83S D135A,0.0656 ± 0.00097,0.0915 ± 0.002,0.292 ± 0.0096
P61D D64K E112H,0.156 ± 0.0048,0.345 ± 0.087,1.36 ± 0.14
D64A I97M,0.0644 ± 0.002,0.0781 ± 0.0023,0.507 ± 0.02
D64I R111L,0.0903 ± 0.0015,0.254 ± 0.032,1.39 ± 0.12
E43C K104V,0.065 ± 0.0013,0.0922 ± 0.0039,0.162 ± 0.011
N83S I90L R111L,0.063 ± 0.0026,0.079 ± 0.0099,0.205 ± 0.021
P61N R96A,0.0665 ± 0.00092,0.0876 ± 0.0059,0.238 ± 0.024
N83R L107H,0.0594 ± 0.00064,0.0632 ± 0.0012,0.0662 ± 0.0035
G32A D131C,0.0613 ± 0.0022,0.0707 ± 0.0055,0.147 ± 0.0097
N83M D131A,0.0614 ± 0.0015,0.0845 ± 0.004,0.065 ± 0.0015
D64T R111F,0.09114 ± 0.00056,0.181 ± 0.022,1.71 ± 0.025
D64T R111A,0.173 ± 0.0098,0.246 ± 0.078,2.17 ± 0.2
P61N V108M,0.07 ± 0.0013,0.122 ± 0.0096,0.698 ± 0.094
P29L,0.0608 ± 0.0015,0.0704 ± 0.0041,0.213 ± 0.0041
N83S D135P,0.0623 ± 0.00073,0.0811 ± 0.0058,0.145 ± 0.004
N83S D135A,0.0628 ± 0.0014,0.0731 ± 0.0064,0.219 ± 0.026
G36F M60L P61N,0.0662 ± 0.0022,0.0735 ± 0.0027,0.143 ± 0.007
C55L M60L P61N D64K,0.071 ± 0.0012,0.0878 ± 0.0025,0.382 ± 0.0068
M60L D64K R111L,0.205 ± 0.0039,0.676 ± 0.1,1.99 ± 0.49
L28V C134T,0.06536 ± 0.00042,0.0943 ± 0.0028,0.646 ± 0.022
